The target in assay [1] is T1, recombinant human 4Ig-B7H3 protein (human, UniProt Q5ZPR3 29-461).
T1 construct: also called human B7H3 protein; SINO BIOLOGICAL Catalog No. 11188-H08H
T1 sequence: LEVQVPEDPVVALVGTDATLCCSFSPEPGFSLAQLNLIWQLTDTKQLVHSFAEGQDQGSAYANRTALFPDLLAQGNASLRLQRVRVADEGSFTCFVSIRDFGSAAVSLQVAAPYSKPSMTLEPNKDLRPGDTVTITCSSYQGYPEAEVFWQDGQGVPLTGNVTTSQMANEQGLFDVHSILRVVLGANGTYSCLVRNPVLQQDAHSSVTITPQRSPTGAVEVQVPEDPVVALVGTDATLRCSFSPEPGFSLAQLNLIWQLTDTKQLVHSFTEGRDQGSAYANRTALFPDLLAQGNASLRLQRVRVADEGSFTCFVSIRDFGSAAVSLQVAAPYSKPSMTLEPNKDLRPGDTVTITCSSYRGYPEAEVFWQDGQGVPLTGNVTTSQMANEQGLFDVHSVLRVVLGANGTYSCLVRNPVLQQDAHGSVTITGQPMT
Description: bio-layer interferometry (ForteBio), hybridoma antibody.

Assay [2] has as its target T2, recombinant cynomolgus monkey B7H3 protein (cynomolgus monkey, UniProt Q7TPB4 26-248 (rat entry)).
T2 construct: also called SINO BIOLOGICAL Catalog No. 90806-C02H-50
T2 chain: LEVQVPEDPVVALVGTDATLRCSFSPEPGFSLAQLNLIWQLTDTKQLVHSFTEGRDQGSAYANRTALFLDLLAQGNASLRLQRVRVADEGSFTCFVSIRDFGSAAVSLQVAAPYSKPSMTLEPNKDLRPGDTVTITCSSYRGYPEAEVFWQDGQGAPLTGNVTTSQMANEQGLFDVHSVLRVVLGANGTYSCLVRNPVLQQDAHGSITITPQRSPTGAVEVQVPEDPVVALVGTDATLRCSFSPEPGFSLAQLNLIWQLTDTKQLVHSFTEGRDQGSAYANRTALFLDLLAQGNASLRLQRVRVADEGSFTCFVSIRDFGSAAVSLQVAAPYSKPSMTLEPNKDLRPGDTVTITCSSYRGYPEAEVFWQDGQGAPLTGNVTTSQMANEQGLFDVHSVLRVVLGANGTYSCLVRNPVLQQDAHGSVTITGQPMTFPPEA
The description is as above.

For assay [3], the target named is T3, cynomolgus monkey B7H3 expressed on CHO cells (CHO-cynoB7H3) (cynomolgus monkey, UniProt Q7TPB4 26-316 (rat entry)).
T3 chain: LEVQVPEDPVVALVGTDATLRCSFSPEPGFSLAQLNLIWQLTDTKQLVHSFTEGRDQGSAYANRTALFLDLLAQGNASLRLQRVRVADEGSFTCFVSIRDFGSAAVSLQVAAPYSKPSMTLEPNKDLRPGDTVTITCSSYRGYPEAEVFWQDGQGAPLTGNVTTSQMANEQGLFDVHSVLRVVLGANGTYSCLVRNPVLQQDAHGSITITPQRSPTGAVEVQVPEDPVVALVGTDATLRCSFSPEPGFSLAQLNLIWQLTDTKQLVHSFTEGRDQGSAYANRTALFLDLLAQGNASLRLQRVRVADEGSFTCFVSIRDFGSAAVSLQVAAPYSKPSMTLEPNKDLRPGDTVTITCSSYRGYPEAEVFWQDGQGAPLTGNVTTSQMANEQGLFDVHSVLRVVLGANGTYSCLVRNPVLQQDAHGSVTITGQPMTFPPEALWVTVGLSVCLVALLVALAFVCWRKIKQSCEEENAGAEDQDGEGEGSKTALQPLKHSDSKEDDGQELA
Put plainly: flow cytometry, hybridoma supernatant on CHO-cynoB7H3 cells.

The results in this text go back to US20240043540A1 (Innovent, published 2024).

B1: 19A2 (hybridoma clone antibody) (antibody, V domains shown)
VH: EVQLQQSGAELVRPGASVKLSCKTSGYIFTSYWIHWIKQRSGQGLEWIARIYPGTDSTFYNEKFKGRATLTADKSSSTVYLQLNSLKSEDSAVYFCHFITASDWYFDVWGAGTTVTVSS
VL: DIVLTQSPAIMSASPGEKVTLTCSVSSSVNSNYLYWYQQKPGSSPKLWIYGTSNLASGVPARFSGSGSGPSYSLTISSMEAEDAASYFCYQWSSYPFTFGSGTKLEIK
For the molecule B1, the dissociation constant Kd in assay [1] was 0.987 nM; in assay [2] it was 0.977 nM. For the same molecule, the binding result in assay [3] was “binds”.

B2: 20G5 (hybridoma clone antibody) (antibody, V domains shown)
VH: EVQLQQSVPELVKPGASVKISCKTSGYTFTEYIMHWVKQSHGKNLEWIGGINPNNGGTTYNQKFKDKATLTVDKSSSTAYMELHNLTSEDSAVYYCTRRTPPWHFAVWGAGTSLTVSS
VL: DIVLTQSPTIMSASPGEKVTMTCSASSSVSYIHWYQQKSGTSPKRWIFDTSRLASGVPARFSGSGSGTSYSLTISSMEAEDAATYYCQQWSSAPLTFGTGTTLELK
For the molecule B2, the Kd was found to be 0.362 nM in assay [1] and 0.59 nM in assay [2]. The binding result in assay [3] is “binds”.
